From PMC7911018, “Effect of Humanizing Mutations on the Stability of the Llama Single-Domain Variable Region” (Biomolecules, 2021)

Target: T1, HER2 ectodomain-Fc (96 kDa) (Homo sapiens, UniProt P04626)
T1 construct: human epidermal growth factor receptor 2 (HER2), ectodomain; also called extracellular domain of HER2; human epidermal growth factor receptor 2
Assay: SPR; Biacore T100, 25 °C; HER2 ectodomain-Fc amine-coupled on a CM5 chip at 1270 RU; VHHs injected as analytes at 7 concentrations between 250 and 3.5 nM in 20 mM Hepes, 150 mM NaCl, 3 mM EDTA, 0.005% Tween 20, pH 7.4; 1:1 Langmuir fit
Conditions: both partners purified

B1: VHH A10 (anti-HER2 nanobody) (VHH)
VHH: DVQLQASGGGFVQPGGSLRLSCAASGATSNISNMGWFRQAPGKEREFVSAISRAESRPLYYADSVKGRFTISRDNSKNTVYLQMNSLRAEDTATYYCAYMPLVRHKAYWGQGTQVTVSS
notes: anti-HER2 VHH from a synthetic library with camelid FW2 hallmarks FERF; also called A10 wt; source: expressed in bacteria, purified (IMAC, SEC)
Question: Does B1 bind?
Answer: Result: binds
